Assay [1] has as its target T1, cynomolgus PRLR ECD (cynomolgus, UniProt A0A2K5WXK1 25-234).
T1 construct: extracellular domain; also called Cyno PRLR
T1 sequence: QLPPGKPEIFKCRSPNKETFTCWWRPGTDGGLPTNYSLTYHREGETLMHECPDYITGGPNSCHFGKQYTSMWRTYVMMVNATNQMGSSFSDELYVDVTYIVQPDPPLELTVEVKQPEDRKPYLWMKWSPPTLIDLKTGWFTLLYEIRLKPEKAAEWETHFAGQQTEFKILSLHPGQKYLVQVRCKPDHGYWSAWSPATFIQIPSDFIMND
Nature of the assay: Biacore SPR, antibody captured on Protein A/G, kinetic titration of PRLR ECD, 1:1 Langmuir. Here is the method: (§1) Affinity of the chimerized and Human Engineered™ antibodies determined by Biacore analysis. Briefly, a CM5 sensor chip (Biacore) immobilized with Protein A/G (Pierce) via NHS/EDC was used to capture approximately 600 RU of antibody on the chip surface. Five concentrations of PRLR ECD beginning at 5 ug/mL (185 nM) and serially diluted at 5× dilution to 0.3 nM were injected from lowest to highest concentration in the kinetic titration injection mode, and 15 minutes of dissociation data was collected. The experiments were double-referenced, i.e. an adjacent flow cell response was subtracted automatically, and the response from a buffer injection experiment was subtracted from the experimental data set. Kinetic and derived parameters (kₐ, kd and KD) were determined by fitting to a 1:1 Langmuir model using BiaEval software customized to the kinetic titration injection mode. Affinity measurements of both chimeric and all Human Engineered™ antibodies against human and cynomolgus PRLR ECD are summarized in Table 9 and Table 10.
For orientation: In SPR one partner is held on a chip, and binding of the other changes the refractive index at the surface.

Assay [2] addresses T2, recombinant extracellular domain (ECD) of the human prolactin receptor (PRLR) (human, UniProt P16471 25-234).
T2 construct: also called PRLR ECD; Human PRLR; not shown: His tag
T2 sequence: T1 sequence with V76I, T110A, M125I, T158I, I207T
Described as above. As for the experimental part:
as §1

Assay [3] deals with T1, cynomolgus PRLR ECD. Nature of the assay: Biacore SPR, antibody covalently immobilized on CM4 chip, PRLR ECD 111 to 1.37 nM.
Assay [4] concerns the target T2, recombinant extracellular domain (ECD) …. The description is as above.
The target of the next assay is T3, rat PRLR ECD (rat, UniProt P05710 20-229).
T3 construct: extracellular domain
T3 sequence (looked up): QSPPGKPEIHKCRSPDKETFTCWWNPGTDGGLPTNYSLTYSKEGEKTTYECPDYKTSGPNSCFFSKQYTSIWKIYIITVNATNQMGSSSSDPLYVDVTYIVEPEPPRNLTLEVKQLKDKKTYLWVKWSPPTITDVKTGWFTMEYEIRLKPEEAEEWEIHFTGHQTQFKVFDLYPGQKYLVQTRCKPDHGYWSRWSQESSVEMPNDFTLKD
Nature of the assay: Biacore SPR, antibody covalently immobilized on CM4 chip. As for the experimental part: (§2) In order to compare rat and mouse cross reactivity using covalently immobilized antibodies, a CM4 chip was coupled with he.06.642-2 and he.06.275-4 antibodies via standard EDC-NHS amine coupling chemistries according to the recommended protocol from Biacore® Inc. The PRLR ECD injections were performed at five concentrations in a three fold titration series starting at 111 nM and going down to 1.37 nM. Regeneration was performed with Glycine pH3.0. The affinity of all of the HE variants of XHA.06.642 and XHA.06.275 are very similar to the affinity of the parental chimeric antibody. Antibody he.06.642-2 binds to human, mouse and rat PRLR with equivalent affinity.

For assay [5], the target named is T4, murine PRLR ECD (mouse, UniProt Q08501 20-229).
T4 construct: extracellular domain; also called Mouse PRLR
T4 sequence (looked up): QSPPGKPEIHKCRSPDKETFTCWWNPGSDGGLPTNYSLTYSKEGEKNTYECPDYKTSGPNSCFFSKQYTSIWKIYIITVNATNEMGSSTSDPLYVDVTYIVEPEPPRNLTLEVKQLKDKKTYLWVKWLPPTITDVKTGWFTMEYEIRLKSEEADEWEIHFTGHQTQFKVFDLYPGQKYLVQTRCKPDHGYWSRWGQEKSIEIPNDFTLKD
Nature of the assay: Biacore SPR, antibody covalently immobilized on CM4 chip, PRLR ECD 111 to 1.37 nM; same run as N2: KD about 17.6 uM, far above the top concentration of 111 nM, which the text calls not binding effectively. As for the experimental part: as §2

Assay [6] addresses T4, murine PRLR ECD. Kind of assay: Biacore SPR, antibody covalently immobilized on CM4 chip, PRLR ECD 111 to 1.37 nM; same run as N2: antibody covalently immobilized on CM4, PRLR ECD 111 to 1.37 nM; very weak fitted binding. Here is the method:
as §2

Where a chain is given by its changes, count along the chain named.

B1: he.06.275-4 (antibody, V domains shown)
VH: QVQLQESGPGLVKPSQTLSLTCTVSGYSITSDYAWNWIRQFPGKGLEWMGYISYSGSTSYNPSLKSRITISRDTSKNQFSLQLNSVTAADTAVYFCARDYGYVFDYWGQGTTLTVSS
VL: DVQITQSPSSLSASPGDRITLTCRASKNIYKYLAWYQEKPGKANKLLIYSGSTLHSGIPSRFSGSGSGTDFTLTISSLQPEDFAMYYCQQHNDYPYTFGQGTKLEIK
notes: Human Engineered
With B1, the Kd (in general, a measure of binding affinity in units of concentration) with cynomolgus PRLR ECD [1] is 1.7 nM; in assay [2] it was 0.52 nM; with cynomolgus PRLR ECD [3], 6.4 nM; in assay [4], 1.3 nM; with murine PRLR ECD [5], 17.6 µM. In the assay with rat PRLR ECD, the binding result is “no binding (tested: PRLR ECD up to 111 nM)”. For the same molecule, the koff (as a rule, a measure of how fast the partners let go of each other) in the assay with murine PRLR ECD [6] is 0.037 s⁻¹. Also, in the assay with murine PRLR ECD [6], the kon (in general, the rate constant with which the complex forms) turned out to be 2100 M⁻¹ s⁻¹.

The values above are taken from patent US20080292620A1 (Novartis, published 2008).
